Patent US20230203203A1 (YISSUM RESEARCH DEVELOPMENT COMPANY OF THE HEBREW …, published 2023)
Square brackets hold non-standard residues; d marks the D form. Ends that are not written are not given here. AEEA = NCCOCCOCC(=O)O

T1: murine CD177 (mouse, UniProt Q8R2S8 22-817)
T1 construct: whole, on cells; On murine neutrophils (HDN, TAN, circulating), on HEK293T cells ectopically expressing it, and from neutrophil lysate in the pull-down; also called mouse CD177; CD177 (on murine neutrophils)
T1 sequence (looked up): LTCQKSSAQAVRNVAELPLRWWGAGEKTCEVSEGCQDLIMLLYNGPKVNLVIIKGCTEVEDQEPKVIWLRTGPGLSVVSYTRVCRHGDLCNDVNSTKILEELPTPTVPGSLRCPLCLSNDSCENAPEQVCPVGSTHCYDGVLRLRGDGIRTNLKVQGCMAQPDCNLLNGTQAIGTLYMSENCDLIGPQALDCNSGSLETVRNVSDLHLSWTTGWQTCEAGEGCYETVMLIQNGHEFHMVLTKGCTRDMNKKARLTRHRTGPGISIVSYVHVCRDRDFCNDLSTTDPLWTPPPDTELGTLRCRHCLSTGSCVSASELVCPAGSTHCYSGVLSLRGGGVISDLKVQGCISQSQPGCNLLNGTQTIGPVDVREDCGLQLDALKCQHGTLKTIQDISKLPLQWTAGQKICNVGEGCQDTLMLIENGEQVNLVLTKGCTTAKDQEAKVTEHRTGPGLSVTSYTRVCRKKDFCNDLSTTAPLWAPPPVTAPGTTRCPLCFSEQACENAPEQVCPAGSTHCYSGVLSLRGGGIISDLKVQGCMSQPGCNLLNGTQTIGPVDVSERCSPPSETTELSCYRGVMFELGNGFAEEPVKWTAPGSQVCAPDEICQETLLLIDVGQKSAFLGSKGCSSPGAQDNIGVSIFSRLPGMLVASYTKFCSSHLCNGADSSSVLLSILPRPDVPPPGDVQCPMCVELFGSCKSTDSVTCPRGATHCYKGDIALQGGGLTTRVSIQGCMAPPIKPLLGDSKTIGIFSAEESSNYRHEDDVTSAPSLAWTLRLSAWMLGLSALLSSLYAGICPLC

T2: human CD177 (human, UniProt Q8N6Q3 22-408)
T2 construct: whole, on cells; On circulating human neutrophils of donors and patients; also called CD177 (on human neutrophils)
T2 sequence (looked up): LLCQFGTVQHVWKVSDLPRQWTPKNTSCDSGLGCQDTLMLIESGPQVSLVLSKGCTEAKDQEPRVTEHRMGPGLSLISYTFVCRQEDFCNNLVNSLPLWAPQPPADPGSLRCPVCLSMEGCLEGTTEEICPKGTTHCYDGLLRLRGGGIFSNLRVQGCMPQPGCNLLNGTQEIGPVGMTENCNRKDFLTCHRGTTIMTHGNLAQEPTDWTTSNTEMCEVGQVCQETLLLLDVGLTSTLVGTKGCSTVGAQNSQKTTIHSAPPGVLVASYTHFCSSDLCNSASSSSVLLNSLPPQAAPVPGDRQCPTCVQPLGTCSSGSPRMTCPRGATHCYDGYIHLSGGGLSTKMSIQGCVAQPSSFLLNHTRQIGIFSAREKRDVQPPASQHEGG


Experiments:
murine CD177 [1] = target: T1, murine CD177; assay: flow cytometry on WBC of 4T1 tumor bearing mice, anti-M13-PE; target named as neutrophils
murine CD177 [2] = target: T1, murine CD177; assay: pull-down from murine neutrophil lysate with biotinylated LQI-tetramer on streptavidin-agarose beads, mass spectrometry
Experimental: After washing, the bound proteins were eluted by incubating the beads for 10 min at 95° C. in protein sample buffer containing beta-mercaptoethanol. The gel was stained using silver staining. Lanes of the eluates of peptide- and control-beads were cut out and analyzed by mass spectrometry.

human CD177 [3] = target: T2, human CD177; assay: negative control on WBCs of a lung cancer patient, flow cytometry
murine CD177 [4] = target: T1, murine CD177; assay: titration on purified murine HDNs, flow cytometry; target named as neutrophils
human CD177 [5] = target: T2, human CD177; assay: flow cytometry on WBCs of healthy volunteers, anti-M13-PE (FIG. 13I)
Experimental: In order to assess the binding efficiency of each peptide to human circulating neutrophils, and the level of variability between individuals, the individual binding of each peptide to 5-8 healthy volunteers was assessed. Blood withdrawn from healthy volunteers was overlaid on 3% dextran in 0.9% NaCl in a 1:1 ratio and left at RT for 25 min to allow erythrocyte sedimentation. Residual RBCs were lysed by adding water for 30 sec and stopped by adding PBS×5 supplemented with 2.5% BSA. Following red blood cell lysis, 0.5×10⁶ WBCs were incubated with each phage separately. The level of binding of the different phages to the neutrophils was then assessed by flow cytometry. Neutrophils were identified based on a CD66b⁺ SSC^high gating, and the level of phage binding was assessed using PE-conjugated anti-M13 antibody for specific phage staining.

Binder	percent of circulating neutrophils bound, average of donors (human CD177 [5]) [%]	other results
LQIQSWSSSP (peptide, part only; not given: phage coat protein VIII, part only) [phage presenting the … (SEQ ID NO: 9) peptide on coat protein VIII]		percent of neutrophils bound (murine CD177 [1]): 95%
LQIQSWSSSP[AEEA][AEEA]C (also: tetramer: four chains joined via Cys-Mpa to branched Lys core, Branched tetramer, MW 7.6 kDa; Detected with SA-Cy3 after washing ('tetramer alone' assay); also called tetrameric LQI; biotinylated LQI-tetramer) [LQI tetramer peptide, (LQIQSWSSSP-Doa-Doa-C)4-(Mpa)4-Lys2-Lys-beta-Ala-Lys(Biotin)-beta-Ala-OH]		peptide/control ratio (murine CD177 [2]): 7.89; binding result (human CD177 [3]): no binding; Kd (murine CD177 [4]): 3.3 µM
PELDSKPYFPPL (other, not shown: phage coat protein pVIII flanking the inserted peptide) [phage presenting peptide PEL]	~60	
SSLMTTQLIATSI (peptide, not shown: large carriers) [phage presenting peptide 14 (SSL)]	60	
KFPDLDSRRLPHMSL (other, detected with PE-conjugated anti-M13 antibody; not shown: phage coat protein pVIII flanking the inserted peptide) [phage presenting peptide 1.1 (KFP)]	~60	
SELRSTPLLVPS (other, not shown: phage coat protein pVIII flanking the inserted peptide) [phage presenting peptide SEL]	~60	
SLESSPMAQLPQ (other, not shown: phage coat protein pVIII flanking the inserted peptide) [phage presenting peptide SLE]	~60	
LATTHMVFSPDH (other, not shown: phage coat protein pVIII flanking the inserted peptide) [phage presenting peptide 27 (LAT)]	~60	
PSSNLESTPLSLL (other, not shown: phage coat protein pVIII flanking the inserted peptide) [phage presenting peptide 4 (PSS)]	~60	
ELVTASMPRPNN (other, not shown: phage coat protein pVIII flanking the inserted peptide) [phage presenting peptide ELV]	~60	
